For assay [1], the target named is T1, PD-L1-hFc (human, UniProt Q9NZQ7). Briefly: SPR, ProteOn XPR36, PD-L1-hFc immobilised on GLC chip, antibody 30 nM to 0.123 nM. The procedure:
(§1) A ProteOn XPR36 (BioRad) instrument was used. The GLC sensor chip (BioRad) was mounted on the instrument and washed with PBST buffer, and the carboxymethyldextran surface was activated with an EDC/sulfo-NHS mixed solution. PD-L1-hFc dissolved at a concentration of 5 ug/ml in a 10 mM sodium acetate buffer solution (pH 5.0) was injected and immobilized on the GLC sensor chip.
In order to deactivate the activated carboxyl groups that remain unreacted with the PD-L1 protein, 1 M ethanolamine was flowed and 10 mM glycine (pH 2.0) was injected in order to wash proteins that remain unbound to the sensor chip.
(In SPR one partner is held on a chip, and binding of the other changes the refractive index at the surface.)

Assay [2] concerns the target T1, PD-L1-hFc. Briefly: SPR, ProteOn XPR36, human PD-L1 (PD-L1-hFc immobilised). The procedure:
as §1
In order to deactivate the activated carboxyl groups that remain unreacted with the PD-L1 protein, 1 M ethanolamine was flowed and 10 mM glycine (pH 2.0) was injected in order to wash proteins that remain unbound to the sensor chip. Then, sensogram data were collected during binding and dissociation over time while allowing the antibodies to flow at a flow rate of 30 µL/min (30 nM to 0.123 nM) for 10 min using PBST buffer.

The next assay concerns the target cynomolgus PD-L1 protein (cynomolgus, UniProt G7PSE7). In words: SPR, ProteOn XPR36, cynomolgus PD-L1 protein (construct not described).

T1 sequence (Q9NZQ7 other isoform, or with tags, fused parts or gaps): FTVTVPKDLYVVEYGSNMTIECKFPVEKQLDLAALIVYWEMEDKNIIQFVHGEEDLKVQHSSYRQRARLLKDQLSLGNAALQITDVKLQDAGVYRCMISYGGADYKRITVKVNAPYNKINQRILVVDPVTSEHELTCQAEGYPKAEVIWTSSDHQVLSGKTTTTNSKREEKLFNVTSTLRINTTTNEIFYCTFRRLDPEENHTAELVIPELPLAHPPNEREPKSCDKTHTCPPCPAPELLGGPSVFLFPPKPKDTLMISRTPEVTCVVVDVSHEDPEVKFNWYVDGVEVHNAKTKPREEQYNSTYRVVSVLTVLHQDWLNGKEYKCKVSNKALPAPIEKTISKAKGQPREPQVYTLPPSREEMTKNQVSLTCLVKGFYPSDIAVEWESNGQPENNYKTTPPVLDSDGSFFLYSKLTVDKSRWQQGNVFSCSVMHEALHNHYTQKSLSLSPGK

B1: PDL1-16E12 (antibody, V domains shown)
VH: QMQLVQSGAEVKKPGSSVKVSCKASGGTFSSYAISWVRQAPGQGLEWMGRIIPILGIANYAQKFQGRVTITADKSTSTAYMELSSLRSEDTAVYYCAKPRDGYNLVAFDIWGQGTMVTVSS
VL: QLVLTQPPSVSGAPGQTVTISCTGSSSNIGAGYDVHWYQQLPGTAPKLLIYGNNNRPSGVPDRFSGSKSGALASLAITGLQAEDGADYHCQSYDNSLSAHAVFGTGTKVTVL
In the case of B1, the affinity in the assay with PD-L1-hFc [1], expressed as Kd, was 45 pM. In other words, the picomolar range.

B2: PDL1-16E12 (LS/4F5) (antibody, V domains shown)
VH: QMQLVQSGAEVKKPGSSVKVSCKASGGTFSSYAISWVRQAPGQGLEWMGRIIPILGIANYAQKFQGRVTITADKSTSTAYMELSSLRSEDTAVYYCAKPRDGYNLVAFDIWGQGTMVTVSS
VL: QLVLTQPPSVSGAPGQRVTISCTGSSSNIGAGYDVHWYQQLPGAAPKLLIYGDINRPSGVPDRFSGSKSGISASLAITGLQAEDEADYYCQSYDSSLSGGVFGGGTKLTVL
Consider B2, for which, in the assay with PD-L1-hFc [2], the Kd (commonly the free concentration of one partner at which half of the binding sites on the other are occupied at equilibrium, for simple one-to-one binding) turned out to be 1 pM; the koff (as a rule, the rate constant with which the complex falls apart) stood at 1e-07 s⁻¹; the on-rate constant (kon) (as a rule, a measure of how fast the partners come together) is 310000 M⁻¹ s⁻¹. Besides, in the assay with cynomolgus PD-L1 protein, the dissociation constant (Kd) worked out at 1 pM and the off-rate constant (koff) came to 1e-07 s⁻¹.

These data come from US10919966B2, “Antibody to programmed death-ligand 1 (PD-L1) and use thereof” (Y-BIOLOGICS INC., dated 2021).
